Tests used:
[1] = biological target: T1, BMP2 (Homo sapiens, UniProt P12643); assay: BMP specificity of VHH antibodies (summary of binding and inhibition of BMP function); parameters: key: ●▪: Binding and inhibition of BMP function.; ●□: Binding, but no inhibition.; ○: No binding; settings: summary of SPR and functional experiments
T1 sequence (P12643 283-396): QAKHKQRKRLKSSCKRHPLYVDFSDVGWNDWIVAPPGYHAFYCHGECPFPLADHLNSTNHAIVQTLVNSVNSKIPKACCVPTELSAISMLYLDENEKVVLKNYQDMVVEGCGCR
Text: (§1) Thus, we have generated several VH Hs that can be classified into four groups (Table 3): BMP4, BMP2/4, BMP2/4/5 and BMP2/4/5/6-specific.

[2] = biological target: T2, BMP5 (Homo sapiens, UniProt P22003); assay: as above; parameters: key: ●▪: Binding and inhibition of BMP function.; ●□: Binding, but no inhibition.; ○: No binding; settings: summary of SPR and functional experiments
T2 sequence (P22003 317-454): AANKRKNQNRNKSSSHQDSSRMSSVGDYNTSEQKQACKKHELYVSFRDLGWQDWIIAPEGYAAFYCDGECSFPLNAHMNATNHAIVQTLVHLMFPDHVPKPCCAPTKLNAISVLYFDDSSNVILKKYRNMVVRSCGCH
Text: as §1

[3] = biological target: T3, BMP7 (Homo sapiens, UniProt P18075); assay: as above; parameters: key: ●▪: Binding and inhibition of BMP function.; ●□: Binding, but no inhibition.; ○: No binding; settings: summary of SPR and functional experiments
T3 sequence (P18075 293-431): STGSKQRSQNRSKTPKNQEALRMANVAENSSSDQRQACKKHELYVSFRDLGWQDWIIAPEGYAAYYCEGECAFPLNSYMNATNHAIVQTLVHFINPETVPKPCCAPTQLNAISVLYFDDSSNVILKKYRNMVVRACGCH
Text: as §1

[4] = biological target: T4, BMP6 (Homo sapiens, UniProt P22004); assay: as above; parameters: key: ●▪: Binding and inhibition of BMP function.; ●□: Binding, but no inhibition.; ○: No binding; settings: summary of SPR and functional experiments
T4 sequence (P22004 375-513): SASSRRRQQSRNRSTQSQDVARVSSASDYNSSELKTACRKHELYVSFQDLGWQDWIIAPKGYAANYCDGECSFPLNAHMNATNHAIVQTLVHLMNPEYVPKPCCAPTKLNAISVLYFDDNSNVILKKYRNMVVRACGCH
Text: as §1

[5] = system: mouse intestinal organoids; assay: Ex vivo mouse intestinal organoid culture (number and growth of organoids); format: cell-based; settings: VHHs in place of Fc-Noggin, 5 days
Procedure: Finally, the VHHs were tested in an intestinal organoid culture system for their ability to neutralize the function of BMP4 ex vivo. Inhibition of BMP activity is one of the requirements to maintain Intestinal Stem Cells in vitro cultured as “organoids” that mimic crypt-villus structures and is usually provided by the addition of Noggin to the media. Murine small intestine organoids were cultured in the presence or absence of the VHH biheads and compared to Noggin. To precisely determine which BMPs are present in these cultures, BMP secretion was measured in the conditioned media of intestinal organoids grown without Noggin for three days. Whereas BMP2, BMP4 and BMP6 could be detected by ELISA (FIG. 14A), BMP5 levels were negative, most likely due to the low sensitivity of the ELISA assay (>250 pg/mL), and not due to the lack of BMP5 in these cultures. Indeed, analysis of the protein lysates of these organoids, detected the presence of BMP2, BMP4, BMP5 and BMP6 (FIG. 14B). Next, freshly isolated crypts from murine small intestines were cultured with the VHHs and tested for their ability to provide endogenous BMP inhibition and to sustain organoid cultures ex vivo. […]
Organoids were cultured as previously described (Sato et al., 2009). […] Crypts were counted and resuspended in matrigel. […]

BMP2: binding and inhibition of BMP function [1]: ●▪
BMP5: binding and inhibition of BMP function [2]: ●▪
BMP7: binding and inhibition of BMP function [3]: ●□
BMP6: binding and inhibition of BMP function [4]: ●□
B1: C8E7: E7 linked to C8, hetero-dimer VHH bihead (protein)
chain: EVQLVESGGGLVQAGGSLRLSCAASGRTFRINDMGWYRQAPGKSRDMVARITSGGNTNYADSVKGRFTISRDNAKNTVYLQMNSLKPEDTAVYYCNADGLRFDSTRYRPFDSWGQGTQVTVSSGGGGSGGGGSEVQLVESGGGLVQAGGSLRLSCAASGSIRGFVAMAWYRQAPGKQREWVATVTNGGTLYGDSVKGRFTGSRDNAKNTVYLQMNSLKPEDTAVYYCALRQIGASGYDYWGQGTQVTVSS
maintenance of organoid culture growth / stem cell proliferation [5]: able to maintain culture growth of organoids
